In patent US20260125472A1 (HEFEI TG IMMUNOPHARMA, published 2026):

Target: T1, Trop2 on A-375-Trop2 melanoma cells (UniProt P09758 27-323, limits assumed)
T1 construct: whole, on cells
T1 sequence (looked up): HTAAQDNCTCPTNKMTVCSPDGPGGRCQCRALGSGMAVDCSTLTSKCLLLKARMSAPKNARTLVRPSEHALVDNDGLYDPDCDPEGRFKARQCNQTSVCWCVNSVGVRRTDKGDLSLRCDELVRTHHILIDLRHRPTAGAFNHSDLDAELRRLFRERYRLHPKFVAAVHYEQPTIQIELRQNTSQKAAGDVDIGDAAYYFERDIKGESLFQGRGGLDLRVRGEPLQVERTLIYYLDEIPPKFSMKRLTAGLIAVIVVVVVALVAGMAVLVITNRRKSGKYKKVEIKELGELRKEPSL
Experiment: flow cytometry, A-375-Trop2 cells, MFI [panel B]
Summary of the method: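 Cells were blocked with goat serum at 4° C for 30 min, then incubated with serially diluted bispecific antibodies or hIgG1LALA control at 4° C for 30 min. Bound antibody was detected with Alexa-647 anti-human IgG (4° C, 30 min, dark) and read by flow cytometry.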

B1: Cross311×Trop2 (bispecific antibody)
scFv: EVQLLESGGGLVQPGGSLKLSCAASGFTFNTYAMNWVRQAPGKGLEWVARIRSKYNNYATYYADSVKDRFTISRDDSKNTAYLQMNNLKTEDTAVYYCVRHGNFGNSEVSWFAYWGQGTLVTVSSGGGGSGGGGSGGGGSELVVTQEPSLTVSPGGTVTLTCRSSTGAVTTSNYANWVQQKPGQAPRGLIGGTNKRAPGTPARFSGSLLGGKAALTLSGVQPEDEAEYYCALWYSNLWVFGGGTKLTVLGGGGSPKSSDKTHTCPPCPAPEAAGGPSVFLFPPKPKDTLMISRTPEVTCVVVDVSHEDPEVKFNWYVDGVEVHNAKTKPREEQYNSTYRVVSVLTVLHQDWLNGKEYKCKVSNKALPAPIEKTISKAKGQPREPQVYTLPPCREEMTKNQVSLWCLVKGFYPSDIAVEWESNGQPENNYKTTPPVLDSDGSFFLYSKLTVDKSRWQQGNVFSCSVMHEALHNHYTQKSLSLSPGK
heavy: QVQLQQSGSELKKPGASVKVSCKASGYTFTNYGMNWVKQAPGQGLKWMGWINTYTGEPTYTDDFKGRFAFSLDTSVSTAYLQISSLKADDTAVYFCARGGFGSSYWYFDVWGQGSLVTVSSASTKGPSVFPLAPSSKSTSGGTAALGCLVKDYFPEPVTVSWNSGALTSGVHTFPAVLQSSGLYSLSSVVTVPSSSLGTQTYICNVNHKPSNTKVDKKVEPKSSDKTHTCPPCPAPEAAGGPSVFLFPPKPKDTLMISRTPEVTCVVVDVSHEDPEVKFNWYVDGVEVHNAKTKPREEQYNSTYRVVSVLTVLHQDWLNGKEYKCKVSNKALPAPIEKTISKAKGQPREPQVCTLPPSREEMTKNQVSLSCAVKGFYPSDIAVEWESNGQPENNYKTTPPVLDSDGSFFLVSKLTVDKSRWQQGNVFSCSVMHEALHNHYTQKSLSLSPGK
light: DIQLTQSPSSLSASVGDRVSITCKASQDVSIAVAWYQQKPGKAPKLLIYSASYRYTGVPDRFSGSGSGTDFTLTISSLQPEDFAVYYCQQHYITPLTFGAGTKVEIKRTVAAPSVFIFPPSDEQLKSGTASVVCLLNNFYPREAKVQWKVDNALQSGNSQESVTEQDSKDSTYSLSSTLTLSKADYEKHKVYACEVTHQGLSSPVTKSFNRGEC
Question: Which “EC50 (read off the curve)” value does the source give for B1 here?
Answer: The value was roughly 1 µg/mL.
